Measurements taken from article PMC3200332.

Molecular target: pyruvate ferredoxin oxidoreductase (POR) from P. furiosus (Pyrococcus furiosus)

| Substance | POR-linked H2 evolution activity (electrons from pyruvate via POR) [U mg^−1] | POR-linked H2 evolution activity (electrons from pyruvate via POR; ferredoxin had no significant effect) [U mg^−1] |
| --- | --- | --- |
| native Pyrococcus furiosus soluble hydrogenase I (SHI), heterotetramer PF0891-PF0894 (from UniProt Q8U2E5 1-367; Q8U2E5 1-367) (complex) | -0 |  |
| OE-SHI Dimer, heterodimeric form of P. furiosus soluble hydrogenase I (His9-PF0893 + PF0894) (from UniProt Q8U2E5 1-367) (complex) |  | 0.2 |
